Results reported in US20260062487A1 (GRITSTONE BIO, published 2026).
Read-outs that look alike come from different tables or passages of the source.

B1: 43-E07 UCHT1v9 (Format 43 31E07-CD3 bispecific antibody) (bispecific antibody, human IgG1, kappa)
chain: EVQLVESGGGLVQPGGSLRLSCAASGYSFTGYTMNWVRQAPGKGLEWVALINPYKGVSTYNQKFKDRFTISVDKSKNTAYLQMNSLRAEDTAVYYCARSGYYGDSDWYFDVWGQGTLVTVSSGGGGSGGGGSDIQMTQSPSSLSASVGDRVTITCRASQEIRRWLAWYQQKPGKAPKLLIYAASNLQSGVPSRFSGSGSGTDFTLTISSLQPEDFATYYCQQSYSTPYTFGQGTKLEIKGGGGSEPKSSDKTHTCPPCPAPEFEGGPSVFLFPPKPKDTLMISRTPEVTCVVVDVSHEDPEVKFNWYVDGVEVHNAKTKPREEQYNSTYRVVSVLTVLHQDWLNGKEYKCKVSNKALPASIEKTISKAKGQPREPQVYTLPPCREEMTKNQVSLWCLVKGFYPSDIAVEWESNGQPENNYKTTPPVLDSDGSFFLYSKLTVDKSRWQQGNVFSCSVMHEALHNHYTQKSLSLSPGK
heavy: QVQLVQSGAEVKKPGASVKVSCKASGFTFTNYLIHWVRQAPGQGLEWMGWINPNSGGTNYAQRLQGRVTMTRDTSTSTVYMELSSLRSEDTAVYYCARDYGAGNDYWGQGTLVTVSSGGGGSGGGGSDIQMTQSPSSLSASVGDRVTITCRASQDIRNYLNWYQQKPGKAPKLLIYYTSRLESGVPSRFSGSGSGTDYTLTISSLQPEDFATYYCQQGNTLPWTFGQGTKVEIKGGGGSGGGGSQVQLVQSGAEVKKPGASVKVSCKASGFTFTNYLIHWVRQAPGQGLEWMGWINPNSGGTNYAQRLQGRVTMTRDTSTSTVYMELSSLRSEDTAVYYCARDYGAGNDYWGQGTLVTVSSASTKGPSVFPLAPSSKSTSGGTAALGCLVKDYFPEPVTVSWNSGALTSGVHTFPAVLQSSGLYSLSSVVTVPSSSLGTQTYICNVNHKPSNTKVDKRVEPKSCDKTHTCPPCPAPEFEGGPSVFLFPPKPKDTLMISRTPEVTCVVVDVSHEDPEVKFNWYVDGVEVHNAKTKPREEQYNSTYRVVSVLTVLHQDWLNGKEYKCKVSNKALPASIEKTISKAKGQPREPQVCTLPPSREEMTKNQVSLSCAVKGFYPSDIAVEWESNGQPENNYKTTPPVLDSDGSFFLVSKLTVDKSRWQQGNVFSCSVMHEALHNRFTQKSLSLSPGK
light: DIQMTQSPSSLSASVGDRVTITCRASQEIRRWLAWYQQKPGKAPKLLIYAASNLQSGVPSRFSGSGSGTDFTLTISSLQPEDFATYYCQQSYSTPYTFGQGTKLEIKRTVAAPSVFIFPPSDEQLKSGTASVVCLLNNFYPREAKVQWKVDNALQSGNSQESVTEQDSKDSTYSLSSTLTLSKADYEKHKVYACEVTHQGLSSPVTKSFNRGEC
notes: also called 43-E07 hUCHT1v9; 43-31E07-GGGGS-UCHT1v9
B2: 41-G5(1C12) UCHT1v9 diabody (bispecific antibody, human IgG1, kappa)
chain: QVQLVQSGAEVKKPGSSVKVSCKASGGTFSNFGVSWLRQAPGQGLEWMGGIIPILGTANYAQKFQGRVTITADESTSTAYMELSSLRSEDTAVYYCATPTNSGYYGPYYYYGMDVWGQGTTVTVSSGGGGSGGGGSDIQMTQSPSSLSASVGDRVTITCRASQSISSWLAWYQQKPGKAPKLLIYAASTLQSGVPSRFSGSGSGTDFTLTISSLQPEDFATYYCQQSYSIPLTFGGGTKVEIKGGGGSEPKSSDKTHTCPPCPAPEFEGGPSVFLFPPKPKDTLMISRTPEVTCVVVDVSHEDPEVKFNWYVDGVEVHNAKTKPREEQYNSTYRVVSVLTVLHQDWLNGKEYKCKVSNKALPASIEKTISKAKGQPREPQVYTLPPCREEMTKNQVSLWCLVKGFYPSDIAVEWESNGQPENNYKTTPPVLDSDGSFFLYSKLTVDKSRWQQGNVFSCSVMHEALHNHYTQKSLSLSPGK
heavy: QVQLVQSGAEVKKPGSSVKVSCKASGGTFSNFGVSWLRQAPGQGLEWMGGIIPILGTANYAQKFQGRVTITADESTSTAYMELSSLRSEDTAVYYCATPTNSGYYGPYYYYGMDVWGQGTTVTVSSGGGGSGGGGSDIQMTQSPSSLSASVGDRVTITCRASQSISSWLAWYQQKPGKAPKLLIYAASTLQSGVPSRFSGSGSGTDFTLTISSLQPEDFATYYCQQSYSIPLTFGGGTKVEIKGGGGSGGGGSEVQLVESGGGLVQPGGSLRLSCAASGYSFTGYTMNWVRQAPGKGLEWVALINPYKGVSTYNQKFKDRFTISVDKSKNTAYLQMNSLRAEDTAVYYCARSGYYGDSDWYFDVWGQGTLVTVSSASTKGPSVFPLAPSSKSTSGGTAALGCLVKDYFPEPVTVSWNSGALTSGVHTFPAVLQSSGLYSLSSVVTVPSSSLGTQTYICNVNHKPSNTKVDKRVEPKSCDKTHTCPPCPAPEFEGGPSVFLFPPKPKDTLMISRTPEVTCVVVDVSHEDPEVKFNWYVDGVEVHNAKTKPREEQYNSTYRVVSVLTVLHQDWLNGKEYKCKVSNKALPASIEKTISKAKGQPREPQVCTLPPSREEMTKNQVSLSCAVKGFYPSDIAVEWESNGQPENNYKTTPPVLDSDGSFFLVSKLTVDKSRWQQGNVFSCSVMHEALHNRFTQKSLSLSPGK
light: not shown
notes: also called 41-G5(1C12) hUCHT1v9; 41-G5 UCHT1v9
B3: 41-E07 UCHT1v9 (Format 41 31E07-CD3 bispecific antibody) (bispecific antibody, human IgG1, kappa)
chain: QVQLVQSGAEVKKPGASVKVSCKASGFTFTNYLIHWVRQAPGQGLEWMGWINPNSGGTNYAQRLQGRVTMTRDTSTSTVYMELSSLRSEDTAVYYCARDYGAGNDYWGQGTLVTVSSGGGGSGGGGSDIQMTQSPSSLSASVGDRVTITCRASQEIRRWLAWYQQKPGKAPKLLIYAASNLQSGVPSRFSGSGSGTDFTLTISSLQPEDFATYYCQQSYSTPYTFGQGTKLEIKGGGGSEPKSSDKTHTCPPCPAPEFEGGPSVFLFPPKPKDTLMISRTPEVTCVVVDVSHEDPEVKFNWYVDGVEVHNAKTKPREEQYNSTYRVVSVLTVLHQDWLNGKEYKCKVSNKALPASIEKTISKAKGQPREPQVYTLPPCREEMTKNQVSLWCLVKGFYPSDIAVEWESNGQPENNYKTTPPVLDSDGSFFLYSKLTVDKSRWQQGNVFSCSVMHEALHNHYTQKSLSLSPGK
heavy: QVQLVQSGAEVKKPGASVKVSCKASGFTFTNYLIHWVRQAPGQGLEWMGWINPNSGGTNYAQRLQGRVTMTRDTSTSTVYMELSSLRSEDTAVYYCARDYGAGNDYWGQGTLVTVSSGGGGSGGGGSDIQMTQSPSSLSASVGDRVTITCRASQEIRRWLAWYQQKPGKAPKLLIYAASNLQSGVPSRFSGSGSGTDFTLTISSLQPEDFATYYCQQSYSTPYTFGQGTKLEIKGGGGSGGGGSEVQLVESGGGLVQPGGSLRLSCAASGYSFTGYTMNWVRQAPGKGLEWVALINPYKGVSTYNQKFKDRFTISVDKSKNTAYLQMNSLRAEDTAVYYCARSGYYGDSDWYFDVWGQGTLVTVSSASTKGPSVFPLAPSSKSTSGGTAALGCLVKDYFPEPVTVSWNSGALTSGVHTFPAVLQSSGLYSLSSVVTVPSSSLGTQTYICNVNHKPSNTKVDKRVEPKSCDKTHTCPPCPAPEFEGGPSVFLFPPKPKDTLMISRTPEVTCVVVDVSHEDPEVKFNWYVDGVEVHNAKTKPREEQYNSTYRVVSVLTVLHQDWLNGKEYKCKVSNKALPASIEKTISKAKGQPREPQVCTLPPSREEMTKNQVSLSCAVKGFYPSDIAVEWESNGQPENNYKTTPPVLDSDGSFFLVSKLTVDKSRWQQGNVFSCSVMHEALHNRFTQKSLSLSPGK
light: not shown
notes: also called 41-31E07-UCHT1v9; 41-E07 hUCHT1v9

Experiments:
[1] = target: T1, HLA-PEPTIDE target A*01:01_… (G2) on cells (human); test: flow cytometry, A375 cells expressing the CT83 pHLA 9-mer
T1 construct: whole, on cells; also recovered from cell lysates in the IP-MS experiment; also called G2 pHLA; G2 target
Procedure: (§1) A375 transduced with luciferase alone served as the negative control. […] Binding was determined by flow cytometery using an anti IgG-PE antibody for detection.

[2] = target: T1, HLA-PEPTIDE target A*01:01_… (G2) on …; test: flow cytometry, anti IgG PE, A375 9mer cells (1e6 copies per cell)
Procedure: as §1

[3] = target: T2, G5 pHLA (HLA-B*35:01 with …) on cells (human); test: flow cytometry, anti IgG PE, LN229 G5 9mer cells (4500 copies per cell)
T2 construct: whole, on cells

[4] = target: T3, CD3 on CD3+ Jurkat cells (human, UniProt P07766 23-207); test: flow cytometry, anti IgG PE, CD3+ Jurkat cells
T3 construct: whole, on cells
T3 sequence (P07766 23-207): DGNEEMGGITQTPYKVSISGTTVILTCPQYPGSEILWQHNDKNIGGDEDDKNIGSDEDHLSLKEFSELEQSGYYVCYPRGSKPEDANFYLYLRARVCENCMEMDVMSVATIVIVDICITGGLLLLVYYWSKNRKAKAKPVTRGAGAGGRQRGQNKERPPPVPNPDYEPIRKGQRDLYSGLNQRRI

[5] = target: T3, CD3 on CD3+ Jurkat cells; test: flow cytometry, anti IgG PE, CD3+ Jurkat cells; remark: listed apart in the source
Procedure: Increasing concentrations of the antibodies were incubated with CD3(+) and CD9(−) Jurkat cells. Binding was determined by flow cytometery using an anti IgG-PE antibody for detection.

[6] = target: T4, refolded A*01:01/b2m complex with the ROBO1 peptide … (human, UniProt P61769 21-119); test: Octet biolayer interferometry, 120 s association and 120 s dissociation
T4 construct: also called ROBO1 pHLA complex

[7] = target: T5, biotinylated refolded G2-pHLA (A*01:01/b2m/…) (human, biotinylated at the C-terminal AviTag); test: as above
T5 construct: Soluble complex caught on streptavidin sensors or MSD plates; also called G2-peptide A*01:01/b2m complex; WT

[8] = target: T4, refolded A*01:01/b2m complex with the …; test: BLI (Octet), refolded pHLA
[9] = target: T1, HLA-PEPTIDE target A*01:01_… (G2) on …; test: flow cytometry, anti IgG PE, A375 9mer cells (1e6 copies per cell); remark: listed apart in the source
Procedure: as §1

Binder	fold increase in binding against 41-E07 UCHT1v9 [1] [fold]	EC50 (read off the curve) [2] [nM]	EC50 (read off the curve) [3] [nM]	EC50 (read off the curve) [4] [nM]	EC50 (read off the curve) [5] [nM]	Kd [6] [nM]	koff [6] [s⁻¹]	kon [6] [M⁻¹ s⁻¹]	Kd [7] [nM]	koff [7] [s⁻¹]	kon [7] [M⁻¹ s⁻¹]	times less binding affinity than to the G2-peptide A*01:01/b2m complex [8] [fold]	EC50 (read off the curve) [9] [nM]
B1	~10	~0.3	–	–	–	–	–	–	–	–	–	–	–
B2	–	–	~4	~4	–	–	–	–	–	–	–	–	–
B3	–	~2	–	~2	~3	5.52	0.00557	1.01e+06	< 0.001	< 1e-07	566000	5000	~2
